The text below walks through data of paper PMC6955305, “An inhibitor of complement C5 provides structural insights into activation” (Proceedings of the National Academy of Sciences of the …, 2019).

For assay [1], the target named is complement C5 (human (endogenous in serum)) (UniProt P01031). Put plainly: SPR. (In general: Surface plasmon resonance follows binding to a sensor surface in real time, without labels.)
Another assay addresses complement C5 (human (endogenous in serum), UniProt P01031 19-673; P01031 678-1676). Put plainly: SEC-MALS; 100 uL at 1 mg/mL on S200 10/300 in PBS; C5-OmCI with RaCI and EcuFab, with or without CirpT1 (2-fold molar excess, excess removed by SEC). The note with it: both partners purified.

Chain of complement C5 (human (endogenous in serum)) (P01031 19-673, chain 1 of 2): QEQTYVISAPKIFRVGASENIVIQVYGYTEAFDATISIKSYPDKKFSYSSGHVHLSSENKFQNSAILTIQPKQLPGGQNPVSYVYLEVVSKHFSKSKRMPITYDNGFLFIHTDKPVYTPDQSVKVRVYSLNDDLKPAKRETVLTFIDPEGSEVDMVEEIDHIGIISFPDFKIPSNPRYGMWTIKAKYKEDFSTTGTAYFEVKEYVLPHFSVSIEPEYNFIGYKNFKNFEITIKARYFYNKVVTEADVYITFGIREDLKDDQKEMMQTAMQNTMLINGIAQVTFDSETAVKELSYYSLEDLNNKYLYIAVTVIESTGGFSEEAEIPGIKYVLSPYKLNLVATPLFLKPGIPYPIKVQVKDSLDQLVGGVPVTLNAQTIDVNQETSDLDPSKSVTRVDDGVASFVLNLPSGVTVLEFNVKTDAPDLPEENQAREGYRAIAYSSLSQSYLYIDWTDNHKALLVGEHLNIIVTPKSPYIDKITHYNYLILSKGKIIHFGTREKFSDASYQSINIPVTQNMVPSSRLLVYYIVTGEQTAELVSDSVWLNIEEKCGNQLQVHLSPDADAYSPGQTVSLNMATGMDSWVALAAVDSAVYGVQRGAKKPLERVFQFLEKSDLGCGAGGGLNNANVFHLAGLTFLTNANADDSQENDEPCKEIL
Chain of complement C5 (human (endogenous in serum)) (P01031 678-1676, chain 2 of 2): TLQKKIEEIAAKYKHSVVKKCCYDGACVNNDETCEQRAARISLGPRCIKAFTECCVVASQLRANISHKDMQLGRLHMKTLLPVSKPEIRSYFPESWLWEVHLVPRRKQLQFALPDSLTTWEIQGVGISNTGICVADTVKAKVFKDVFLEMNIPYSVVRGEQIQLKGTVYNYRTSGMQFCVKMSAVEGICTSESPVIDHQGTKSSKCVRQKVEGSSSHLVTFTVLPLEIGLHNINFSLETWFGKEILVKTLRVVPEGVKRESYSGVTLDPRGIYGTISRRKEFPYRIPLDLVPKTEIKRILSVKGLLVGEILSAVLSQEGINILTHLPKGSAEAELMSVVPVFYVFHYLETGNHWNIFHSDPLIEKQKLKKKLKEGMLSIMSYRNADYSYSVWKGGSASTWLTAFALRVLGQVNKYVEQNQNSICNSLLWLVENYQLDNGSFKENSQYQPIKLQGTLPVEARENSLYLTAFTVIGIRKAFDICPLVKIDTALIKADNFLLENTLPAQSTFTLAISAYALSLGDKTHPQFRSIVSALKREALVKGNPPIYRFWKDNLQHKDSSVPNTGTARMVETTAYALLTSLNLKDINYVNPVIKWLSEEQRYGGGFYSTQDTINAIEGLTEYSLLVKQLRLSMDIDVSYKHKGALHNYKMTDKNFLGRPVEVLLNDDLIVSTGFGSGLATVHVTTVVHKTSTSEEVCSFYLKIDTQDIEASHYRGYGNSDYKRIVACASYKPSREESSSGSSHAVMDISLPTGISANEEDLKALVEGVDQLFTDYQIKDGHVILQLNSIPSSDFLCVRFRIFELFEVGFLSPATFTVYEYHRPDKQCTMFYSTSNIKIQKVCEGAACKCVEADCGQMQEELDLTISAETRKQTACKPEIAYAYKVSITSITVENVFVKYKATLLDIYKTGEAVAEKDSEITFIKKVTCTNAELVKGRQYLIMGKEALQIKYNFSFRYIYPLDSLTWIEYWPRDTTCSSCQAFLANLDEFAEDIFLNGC
Chain of complement C5 (P01031 19-673, chain 1 of 2): as the sequence (P01031 19-673, chain 1 of 2) above
Chain of complement C5 (P01031 678-1676, chain 2 of 2): as the sequence (P01031 678-1676, chain 2 of 2) above

What is called Kd is the equilibrium constant for the complex coming apart. High values mean a looser complex, low ones a tighter complex. Molecule “CirpT1 (complement inhibitor from Rhipicephalus pulchellus of the terminal pathway, family member 1) (natural protein)” came in with a Kd in assay [1] of 10 nM.

B1: OmCI (natural protein)
chain: DSESDCTGSEPVDAFQAFSEGKEAYVLVRSTDPKARDCLKGEPAGEKQDNTLPVMMTFKNGTDWASTDWTFTLDGAKVTATLGNLTQNREVVYDSQSHHCHVDKVEKEVPDYEMWMLDAGGLEVEVECCRQKLEELASGRNQMYPHLKDC
notes: also called Coversin
B1: the binding result in the assay with complement C5 is given as “binds”.
